PMC8880518, “Regulation of the Leucine Metabolism in Mortierella alpina” (Journal of Fungi, 2022)
Where two headings read alike, the source gives them in different places. Values belong to the molecule of their own block, whether it stands above or below them.

Key:
[1] = molecular target: LeuA1, α-isopropylmalate synthase of Mortierella alpina (Mortierella alpina); experiment: SEC; size exclusion chromatography of the purified His6-tagged proteins in solution; conditions are in the Supplementary Materials
[2] = molecular target: T1, BCAA aminotransferase BatA (Mortierella alpina, UniProt A0A9P6M176); experiment: activity of purified enzyme with and without PLP (HILIC-UHPLC-MS); assay type: biochemical
T1 construct: gene BCAT1; 374 aa), N-terminally His6-tagged

[3] = molecular target: T2, α-isopropylmalate synthase LeuA1 (Mortierella alpina, UniProt A0A9P6IVH7); experiment: continuous DTNB assay of CoA release with purified recombinant enzyme; assay type: biochemical
T2 construct: gene BGZ70_001638; N-terminally His6-tagged LeuA1

[4] = substrate: CCC(=O)C(=O)O; experiment: Michaelis-Menten kinetics (KM), DTNB assay with purified recombinant enzyme; assay type: biochemical, Mortierella alpina; settings: divalent cation (Mg2+, exchangeable with Ca2+ or Mn2+)
[5] = substrate: CC(C)C(=O)C(=O)O; experiment: as above; assay type: biochemical, Mortierella alpina; settings: divalent cation (Mg2+, exchangeable with Ca2+ or Mn2+) substrate binding pocket
purified protein = substrate: CC(=O)SCCNC(=O)CCNC(=O)[C@H](O)C(C)(C)COP(=O)(O)OP(=O)(O)OC[C@H]1O[C@@H](n2cnc3c(N)ncnc32)[C@H](O)[C@@H]1OP(=O)(O)O; experiment: purified protein; settings: divalent cation (Mg2+, exchangeable with Ca2+ or Mn2+)

T1 sequence (A0A9P6M176 entry or part of it): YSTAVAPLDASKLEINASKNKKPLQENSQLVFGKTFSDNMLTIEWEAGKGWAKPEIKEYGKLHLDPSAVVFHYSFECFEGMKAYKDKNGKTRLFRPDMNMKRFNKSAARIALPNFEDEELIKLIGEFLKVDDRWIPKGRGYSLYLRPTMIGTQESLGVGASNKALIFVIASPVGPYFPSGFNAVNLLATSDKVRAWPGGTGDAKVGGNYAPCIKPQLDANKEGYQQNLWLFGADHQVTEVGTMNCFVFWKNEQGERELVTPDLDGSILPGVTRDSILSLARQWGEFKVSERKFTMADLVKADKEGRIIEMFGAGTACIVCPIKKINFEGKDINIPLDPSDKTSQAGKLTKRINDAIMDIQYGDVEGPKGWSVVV

stoichiometry N [1]: 6
Molecule: LeuA1, α-isopropylmalate synthase of Mortierella alpina (enzyme)

Molecule: Cc1ncc(COP(=O)(O)O)c(C=O)c1O [PLP, pyridoxal phosphate]
activity of purified enzyme with and without PLP (HILIC-UHPLC-MS) [2]: The enzyme converted all BCAAs (L-Ile, L-Leu, L-Val) and their respective α-keto acids in a PLP-dependent manner

Molecule: CCC(=O)SCCNC(=O)CCNC(=O)[C@H](O)C(C)(C)COP(=O)(O)OP(=O)(O)OC[C@H]1O[C@@H](n2cnc3c(N)ncnc32)[C@H](O)[C@@H]1OP(=O)(O)O [Prop-CoA, propionyl-CoA]
Ki [3]: 320 ± 121 µM

Ki ([3]; read-out: KI): 293 ± 30.4 µM
Molecule: CC(C)CC(=O)C(=O)O [KIC, α-ketoisocaproate]

Ki ([3]; read-out: KI): 53 ± 2.5 µM
Molecule: CC(C)C[C@H](N)C(=O)O [Leu, L-leucine]

B1: α-isopropylmalate synthase LeuA1 (Mortierella alpina) (protein)
chain: MAQANKDKLIIFDTTLRDGEQSPGVTLTVNEKIEIAKQLSRLGVDVLEAGFPVASQGDFDAVERIAIEVGPLMVGREALGKPITIAGLARAVPADIQRCYDAIAKAPHKRIHTFLATSDIHLEHKLKISRDECVKRAVAAVSFAKTLVQDVEFSPEDAGRSDQDFLCKVLSAVIEAGATTLNIPDTVGYNMPEEYGSMIKYLIANTKGSDTVIWSAHCHNDLGLATANTLSGIMNGIRQVEVTINGIGERAGNTAMEEVVMAIHTHPNFFPVYHTINTPLFFRISQLVSSLSGMAVQSNKAIVGANAFLHESGIHQDGVLKNKTTYEIISPETVGANTVNLVLGKHSGRAAFKSRLQELGFGELSDEEFQVAFNSFKTLADSKKRVTEQDLLALLSDQVSAASGDKATFVIKSLQVVSGTSFATATVQLQNSQTGDVVVDAAIGKSGPVEAVFLAIQRLVGKRIRLLKFDITAVGEGVDALGQVSVKIAEDTSSPGSSDNDETAEEAKDSESKANEISQATYHGHGADSDIIQAATKAYLNAINRLVANENERLLGERKVDV
notes: N-terminally His6-tagged LeuA1
Km [4]: 280.8 ± 45.0 µM
kcat [4]: 47.4 ± 5.41 s⁻¹
kcat/Km [4]: 169000 M⁻¹ s⁻¹
Km [5]: 56.9 ± 6.3 µM
kcat [5]: 26.6 ± 1.2 s⁻¹
kcat/Km [5]: 467000 M⁻¹ s⁻¹
Km (purified protein): 28.6 ± 4.1 µM
kcat (purified protein): 25 s⁻¹
kcat/Km (purified protein): 873000 M⁻¹ s⁻¹
